Test results: PMC4158420, “Crenactin from Pyrobaculum calidifontis is closely related to actin in structure and forms steep helical filaments” (Febs Letters, 2014)

Biological target: the molecule itself
Experiment: crystal structure; vapour diffusion, crenactin around 2-5 mg/ml, 100 mM phosphate/citrate pH 4.2, 200 mM lithium sulfate, 20% PEG 1000; space group P41212; 3.2 Å; ADP bound

B1: Pyrobaculum calidifontis crenactin (natural protein, UniProt A3MWN5 1-432, looked up)
chain: MGVISDAYRLKYTFGVDFGTSYVKYGPITLNEPKMVQTRGLFLRDLPESVKMRIPPDVLARGLVVGDEEVRKYLSSVRDVQRNLKYPLKDGVARRDDEEAWRVLKELARYTLAQFPVSDPEFAGWLVAVALSALAPDYMYKAIFDIYDELASEFKIYAVTILPQPLAVAIAENAVNCVIVEGGHGNIQVAPISFALIREGLVALNRGGAEANAITREILKDIGYSDIAREEYAVEVVKRAVGLVPRRLKEAIRAAKSDPDRFVTKVRLSPVVEVEIPREYAWTRFLIGEIVFDPNHEEIKSYIEQSRLRIENAVIGDVTLYGEMDVASAIITSLRNVSVEIQERVASQIILSGGAFSWRVPPGMEDVAADSVTRVKIALEEKSPALASKVEVRLVSEPQYSVWRGAVIYGYALPLSLEWSDTTREGWRFPRR
notes: crenactin, Pyrobaculum calidifontis, NCBI YP_001056518.1, residues 1-432; full-length protein with no residues added or removed after SUMO cleavage; Gene codon-optimised for E. coli, cloned into pOPINS (HIS6-SUMO-POI); the crystal holds 2 monomers per asymmetric unit, packing as a continuous filament; also called Pc crenactin; source: E. coli BL21(AI), purified (HisTrap, SUMO protease SENP1 …)
- binding result: binds
